Results: patent US20210087271A1
“And” between values parts separate entries of the source, which are not always exact repeats. Identical values can stand only once.

What was measured:
[1] = target: C1q (UniProt P02745); assay: flow cytometry; antibody on CD3 peptide-coated SA Dyna Beads incubated with C1q
[2] = target: FcγRI (human) (UniProt P12314); assay: SPR Biacore 8K; IgG captured on biotinylated CD3 peptide SA chip; 100 nM FcγRI, pH 7.4
[3] = target: FcRn (UniProt P55899); assay: SPR Biacore 8K; IgG captured on biotinylated CD3 peptide SA chip; 1 µM FcRn, pH 6.0
[4] = target: C1q (UniProt P02745); assay: SPR Biacore 8K; IgG captured on biotinylated CD3 peptide SA chip; 1 µM C1q, pH 7.4
[5] = target: FcγRIIIA (human) (UniProt P08637); assay: SPR Biacore 8K; IgG captured on biotinylated CD3 peptide SA chip; 1 µM FcγRIIIA, pH 7.4
[6] = target: FcγR on THP-1 cells; assay: flow cytometry; 100 nM antibody pre-complexed with 10 nM biotinylated CD3 peptide, on THP-1 cells
[7] = target: FcγRIIA (human) (UniProt P12318); assay: SPR Biacore 8K; IgG captured on biotinylated CD3 peptide SA chip; 1 µM FcγRIIA, pH 7.4
[8] = target: FcγRIIA (human) (UniProt P12318); assay: SPR Biacore 8K, response vs WT
[9] = target: FcγRI (human) (UniProt P12314); assay: SPR Biacore 8K, response vs WT
[10] = target: CD3; assay: BLI ForteBio; IgG on AHQ sensor, 100 nM antigen, 1:1 model

Chain of UniProt P12314 (P12314 16-288 limits assumed): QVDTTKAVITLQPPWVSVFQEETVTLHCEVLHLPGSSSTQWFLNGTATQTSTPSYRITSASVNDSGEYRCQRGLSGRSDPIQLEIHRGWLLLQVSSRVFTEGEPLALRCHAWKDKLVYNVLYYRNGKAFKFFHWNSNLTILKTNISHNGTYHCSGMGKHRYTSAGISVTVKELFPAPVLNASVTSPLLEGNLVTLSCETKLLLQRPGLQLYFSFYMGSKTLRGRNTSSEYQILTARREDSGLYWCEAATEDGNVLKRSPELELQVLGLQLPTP
Chain of UniProt P12318 (P12318 36-218 limits assumed): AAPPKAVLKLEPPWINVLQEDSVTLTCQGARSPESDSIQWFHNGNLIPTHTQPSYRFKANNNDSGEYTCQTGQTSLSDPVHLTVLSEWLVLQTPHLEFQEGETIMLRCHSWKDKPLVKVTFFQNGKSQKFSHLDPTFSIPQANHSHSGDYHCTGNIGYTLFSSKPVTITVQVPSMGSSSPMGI
Chain of UniProt P08637 (P08637 17-208 limits assumed): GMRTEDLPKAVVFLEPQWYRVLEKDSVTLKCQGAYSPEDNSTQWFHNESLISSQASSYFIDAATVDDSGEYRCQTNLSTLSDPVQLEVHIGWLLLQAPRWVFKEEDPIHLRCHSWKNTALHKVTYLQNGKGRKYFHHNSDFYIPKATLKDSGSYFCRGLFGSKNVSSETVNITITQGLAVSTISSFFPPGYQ
Chain of UniProt P02745 (P02745 23-245 limits assumed, chain 1 of 3): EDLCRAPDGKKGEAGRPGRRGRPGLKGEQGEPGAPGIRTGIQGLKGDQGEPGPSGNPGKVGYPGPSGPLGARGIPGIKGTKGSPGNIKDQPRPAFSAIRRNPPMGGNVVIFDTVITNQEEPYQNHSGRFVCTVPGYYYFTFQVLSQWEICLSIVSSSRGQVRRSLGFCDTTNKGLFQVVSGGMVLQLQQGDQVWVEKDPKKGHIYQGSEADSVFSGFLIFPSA
Chain of UniProt P02745 (P02746 28-253 limits assumed, chain 2 of 3, further chain): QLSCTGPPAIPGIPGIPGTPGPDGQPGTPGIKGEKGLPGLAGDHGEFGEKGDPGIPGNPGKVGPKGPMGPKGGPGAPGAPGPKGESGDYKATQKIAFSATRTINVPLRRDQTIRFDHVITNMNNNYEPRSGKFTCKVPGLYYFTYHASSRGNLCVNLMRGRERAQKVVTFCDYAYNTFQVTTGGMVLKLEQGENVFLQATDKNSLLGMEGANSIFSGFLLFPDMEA
Chain of UniProt P02745 (P02747 29-245 limits assumed, chain 3 of 3, further chain): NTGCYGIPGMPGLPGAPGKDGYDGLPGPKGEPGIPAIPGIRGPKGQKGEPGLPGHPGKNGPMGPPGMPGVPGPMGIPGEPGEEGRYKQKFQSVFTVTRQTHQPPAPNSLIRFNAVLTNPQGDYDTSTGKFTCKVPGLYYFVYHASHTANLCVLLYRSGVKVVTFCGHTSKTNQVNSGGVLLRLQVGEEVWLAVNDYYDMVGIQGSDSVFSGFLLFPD

C1q Binding (MFI) [1]	late association response (RU) [2]	late association response (RU) [3]	late association response (RU) [4]	late association response (RU) [5]	THP-1 Binding (MFI) [6]	late association response (RU) [7]	% reduction of binding compared to WT [8]	% reduction of binding compared to WT [9]	Kd [10]	Substance
1980 MFI	23.5 RU	44 RU	-13.9 RU	0.6 RU	5270 MFI	0.1 RU	–	–	–	LALA variant of the CD3 antibody (WT engineered to contain L234A and L235A) (from UniProt P01857 1-330)
621 MFI	–	45.1 RU	-3.3 RU	-0.5 RU	169 MFI	-0.1 RU	> 95% and 100%	> 95% and 97.6%	3.9 nM	LALA-PA variant of the CD3 antibody (WT engineered to contain L234A and L235A and P329A) (from UniProt P01857 1-330)
676 MFI	2 RU	44.5 RU	-25.1 RU	-0.3 RU	146 MFI	-0.1 RU	–	–	–	LALA-PG variant of the CD3 antibody (WT engineered to contain L234A and L235A and P329G) (from UniProt P01857 1-330)
1790 MFI	–	38.9 RU	-27.3 RU	0.4 RU	5300 MFI	0.1 RU	–	–	–	LALE variant of the CD3 antibody (WT engineered to contain L234A and L235E) (from UniProt P01857 1-330)
660 MFI	0.8 RU	38.1 RU	-23.3 RU	-0.1 RU	124 MFI	-0.1 RU	–	–	–	LALE-PA variant of the CD3 antibody (WT engineered to contain L234A and L235E and P329A) (from UniProt P01857 1-330)
865 MFI	0.8 RU	37.3 RU	-6.5 RU	-0.3 RU	124 MFI	0 RU	100%	99.1%	–	LALE-PG variant of the CD3 antibody (WT engineered to contain L234A and L235E and P329G) (from UniProt P01857 1-330)
